Test results published in PMC2823633 (The Journal of neuroscience : the official journal of the …, 2009).

T1: GST fusion of the Mint1 PDZ-2 domain (740-825) (UniProt Q02410 740-825, Cys 742 replaced with Ser)
T1 sequence (looked up): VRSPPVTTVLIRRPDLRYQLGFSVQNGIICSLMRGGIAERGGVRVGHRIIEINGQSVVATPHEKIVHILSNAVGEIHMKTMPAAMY


Target: T1, GST fusion of the Mint1 PDZ-2 domain …
Experiment: ELISA

Binder	binding result
GVPARTQVEVWV [synthetic artificial peptide GVPARTQVEVWV]	binds
GVPARTQVAVAV [doubly substituted peptide GVPARTQVAVAV]	binds
ASYCKQRNIVWL [synthetic artificial peptide ASYCKQRNIVWL (positive control)]	binds
GHLSESSQVRWL [synthetic artificial peptide GHLSESSQVRWL (positive control)]	binds
TAKCAARFPTWL [synthetic artificial peptide TAKCAARFPTWL]	binds
